Experiments:
[1] = test system: T1, synthetic peptide (SEQ ID NO: 20)
T1 sequence: EPPLSEQAFADLWKK

[2] = test system: T2, synthetic peptide (SEQ ID NO: 11)
T2 sequence: EPPLSQEAFADLWKK

Substance	incorporation of phosphate into the peptide (200 or 500 µM) [1]	incorporation of phosphate into the peptide (200 or 500 µM) [2]
catalytic subunit of cyclic AMP kinase	less than 5% of the incorporation into the standard peptides used to assay each kinase	less than 5% of the incorporation into the standard peptides used to assay each kinase
casein kinase I	less than 5% of the incorporation into the standard peptides used to assay each kinase	less than 5% of the incorporation into the standard peptides used to assay each kinase
casein kinase II	less than 5% of the incorporation into the standard peptides used to assay each kinase	less than 5% of the incorporation into the standard peptides used to assay each kinase

From patent publication US6803203
